Experimental findings from paper PMC10690619 (Frontiers in Microbiology, 2023) are described below.

Data set [1] concerns the target T1, cDPGS (Mf-cDPGS), cyclic 2,3-diphosphoglycerate synthetase (Methanothermus fervidus, UniProt O93732).
T1 construct: gene cpgS; full length, 460 residues, N-terminal His6 tag (pLATE51, E. coli BL21(DE3), codon-optimised gene), homodimer ~100 kDa; apo structure solved from selenomethionine protein
The experiment in a line: HPLC-MS detection of product. The data set is classed as biochemical. Particulars: 50 mM ATP, 250 mM 2,3-DPG, 50 mM MgCl2, 300 mM KCl, 25 mM Tris-HCl pH 8.0, 65 C, 60 min.

Data set [2] deals with the molecule itself. Description: SEC; calibrated Superdex 200 HiLoad 16/60, 20 mM Tris-HCl pH 7.5, 300 mM KCl, 1.0 mL/min, after Ni2+ affinity. In general terms: In gel filtration, larger molecules generally elute earlier.
Data set [3] deals with the molecule itself. Description: crystal structure; ligand-free (apo) selenomethionine protein, space group I222, one protomer in the asymmetric unit, 1.7 Å, SAD; oligomeric state analysed with PISA.

For orientation: stoichiometry N means a count of units in the complex or per binding partner.

Take `O=C(O)[C@H]1COP(=O)(O)OP(=O)(O)O1` [cDPG]: in data set [1], the “HPLC-MS detection of product” value was “The direct production of cDPG was monitored by HPLC–MS”.

B1: cyclic 2,3-diphosphoglycerate synthetase from Methanothermus fervidus, N-terminally His-tagged (enzyme, UniProt O93732 1-460, looked up)
chain: MGETKKMICLVDGEHYFPVVKDSIEILDDLEHIDVVAVVFIGGTEKLQIEDPKEYSEKLGKPVFFGPDPKKIPYDVIKKCVKKYNADIVMDLSDEPVVDYTKRFRIASIVLKEGAVYQGADFKFEPLTEYDVLEKPSIKIIGTGKRIGKTAVSAYAARVIHKHKYNPCVVAMGRGGPREPEIVEGNKIEITAEYLLEQADKGVHAASDHWEDALMSRILTVGCRRCGGGMLGDTFITNVKRGAEIANKLDSDFVIMEGSGAAIPPVKTNRQIVTVGANQPMININNFFGPFRIGLADLVIITMCEEPMATTEKIKKVEKFIKEINPSANVIPTVFRPKPVGNVEGKKVLFATTAPKVVVGKLVNYLESKYGCDVVGVTPHLSNRPLLRRDLKKYINKADLMLTELKAAAVDVATRVAIEAGLDVVYCDNIPVVIDESYGNIDDAIIEVVEMAIDDFKNNR
notes: cyclic 2,3-diphosphoglycerate synthetase (cDPGS), Methanothermus fervidus; E. coli codon-optimised gene in pLATE51; 460 protein residues in the structures, which hold the entire polypeptide chain (N-terminal domain of 127 amino acids, C-terminal domain residues 136-460); No removal of the His tag is told; also called cDPGS; Mf-cDPGS
Consider B1, for which the “stoichiometry N” value in data set [2] amounted to 2.

B2: selenomethionine derivative of cyclic 2,3-diphosphoglycerate synthetase from Methanothermus fervidus (enzyme, UniProt O93732 1-460, looked up)
chain: MGETKKMICLVDGEHYFPVVKDSIEILDDLEHIDVVAVVFIGGTEKLQIEDPKEYSEKLGKPVFFGPDPKKIPYDVIKKCVKKYNADIVMDLSDEPVVDYTKRFRIASIVLKEGAVYQGADFKFEPLTEYDVLEKPSIKIIGTGKRIGKTAVSAYAARVIHKHKYNPCVVAMGRGGPREPEIVEGNKIEITAEYLLEQADKGVHAASDHWEDALMSRILTVGCRRCGGGMLGDTFITNVKRGAEIANKLDSDFVIMEGSGAAIPPVKTNRQIVTVGANQPMININNFFGPFRIGLADLVIITMCEEPMATTEKIKKVEKFIKEINPSANVIPTVFRPKPVGNVEGKKVLFATTAPKVVVGKLVNYLESKYGCDVVGVTPHLSNRPLLRRDLKKYINKADLMLTELKAAAVDVATRVAIEAGLDVVYCDNIPVVIDESYGNIDDAIIEVVEMAIDDFKNNR
modifications: selenomethionine in place of methionine
notes: cyclic 2,3-diphosphoglycerate synthetase (cDPGS), Methanothermus fervidus; same construct as m1, made with selenomethionine; 460 protein residues, the entire polypeptide chain seen in the structure; Used for the ligand-free structure (SAD phasing); One protomer in the asymmetric unit; the dimer lies on a crystallographic dyad; also called SeMet cDPGS; apo-cDPGS; source: E. coli, PASM-5052 auto …
With B2, the binding result in data set [3] was “binds”.
